Article PMC3413214, “Structural and biochemical characterization of a trapped coenzyme A adduct of Caenorhabditis elegans glucosamine-6-phosphate N-acetyltransferase 1” (Acta Crystallographica Section D: Biological Crystallography, 2012)

Substrate: CC(=O)SCCNC(=O)CCNC(=O)[C@H](O)C(C)(C)COP(=O)(O)OP(=O)(O)OC[C@H]1O[C@@H](n2cnc3c(N)ncnc32)[C@H](O)[C@@H]1OP(=O)(O)O
Assay: purified protein
Assay type: biochemical, Caenorhabditis elegans
Conditions: GlcN-6P constant, 25 mM Tris-HCl pH 7.5, 250 mM NaCl, 2 mM EDTA, 5% glycerol, 293 K, 20.0 °C

B1: CeGNA1 (Caenorhabditis elegans) (protein)
chain: MSHIFDASVLAPHIPSNLPDNFKVRPLAKDDFSKGYVDLLSQLTSVGNLDQEAFEKRFEAMRTSVPNYHIVVIEDSNSQKVVASASLVVEMKFIHGAGSRGRVEDVVVDTEMRRQKLGAVLLKTLVSLGKSLGVYKISLECVPELLPFYSQFGFQDDCNFMTQRF
notes: full-length, 165 residues; GST fusion from pGEX-6P-1 in E. coli BL21(DE3) pLysS, GST cut with PreScission protease; homodimer; 18 876 Da by MALDI
Km (3 nM enzyme): 192 ± 16 µM | kcat (3 nM enzyme): 252 s⁻¹ | kcat/Km (3 nM enzyme): 1.3e+06 M⁻¹ s⁻¹

B2: CeGNA1 (Caenorhabditis elegans; C141S) (protein)
chain: MSHIFDASVLAPHIPSNLPDNFKVRPLAKDDFSKGYVDLLSQLTSVGNLDQEAFEKRFEAMRTSVPNYHIVVIEDSNSQKVVASASLVVEMKFIHGAGSRGRVEDVVVDTEMRRQKLGAVLLKTLVSLGKSLGVYKISLESVPELLPFYSQFGFQDDCNFMTQRF
notes: as for B1
Km (10 nM enzyme): 261 ± 33 µM | kcat (10 nM enzyme): 48 s⁻¹ | kcat/Km (10 nM enzyme): 200000 M⁻¹ s⁻¹
